Consider 4 substances from patent publication US20220356230A1.

The test concerns the target VSV G protein on VSV delta G pseudotyped virus-like particles (Vesicular stomatitis virus) (UniProt P03522).
The substance mAb10933 (antibody) yielded a VSV-VLP Binding Signal (RLU) of 507 RLU.

Turning to mAb10934 (antibody), the VSV-VLP Binding Signal (RLU) was found to be 3880 RLU.

Consider mAb10987 (antibody), for which the VSV-VLP Binding Signal (RLU) was 1840 RLU.

Regarding mAb10936 (antibody), the VSV-VLP Binding Signal (RLU) was 2320 RLU.
